These results are taken from patent US20050182242A1, “Global analysis of protein activities using proteome chips” (priority 2001, published 2005).

Sequences and labels used below:
B1: RPL9B: yeast GST-HisX6 fusion protein on proteome chip (protein, UniProt P51401 1-191, looked up)
Large ribosomal subunit …: MKYIQTEQQIEIPEGVTVSIKSRIVKVVGPRGTLTKNLKHIDVTFTKVNNQLIKVAVHNGDRKHVAALRTVKSLVDNMITGVTKGYKYKMRYVYAHFPINVNIVEKDGAKFIEVRNFLGDKKIRNVPVRDGVTIEFSTNVKDEIVLSGNSVEDVSQNAADLQQICRVRNKDIRKFLDGIYVSHKGFIVEDM
modifications: GST-HisX6 tag
notes: yeast GST-HisX6 fusion protein on proteome chip
B2: CCT8: yeast GST-HisX6 fusion protein on proteome chip (protein, UniProt P47079 1-568, looked up)
T-complex protein 1 subunit …: MSLRLPQNPNAGLFKQGYNSYSNADGQIIKSIAAIRELHQMCLTSMGPCGRNKIIVNHLGKIIITNDAATMLRELDIVHPAVKVLVMATEQQKIDMGDGTNLVMILAGELLNVSEKLISMGLSAVEIIQGYNMARKFTLKELDEMVVGEITDKNDKNELLKMIKPVISSKKYGSEDILSELVSEAVSHVLPVAQQAGEIPYFNVDSIRVVKIMGGSLSNSTVIKGMVFNREPEGHVKSLSEDKKHKVAVFTCPLDIANTETKGTVLLHNAQEMLDFSKGEEKQIDAMMKEIADMGVECIVAGAGVGELALHYLNRYGILVLKVPSKFELRRLCRVCGATPLPRLGAPTPEELGLVETVKTMEIGGDRVTVFKQEQGEISRTSTIILRGATQNNLDDIERAIDDGVAAVKGLMKPSGGKLLPGAGATEIELISRITKYGERTPGLLQLAIKQFAVAFEVVPRTLAETAGLDVNEVLPNLYAAHNVTEPGAVKTDHLYKGVDIDGESDEGVKDIREENIYDMLATKKFAINVATEAATTVLSIDQIIMAKKAGGPRAPQGPRPGNWDQED
modifications: GST-His6 tag
notes: as for B1
B3: GFD1: yeast GST-HisX6 fusion protein on proteome chip (protein, UniProt Q04839 1-188, looked up)
mRNA transport factor GFD1: MPLESIWADAPDEEPIKKQKPSHKRSNNNKKNNNSRWSNESSSNNKKKDSVNKVKNNKGNHESKTKNKIKETLPREKKPPHSQGKISPVSESLAINPFSQKATEISPPPVSPSKMKTTKTQSKQDTASKMKLLKKKIEEQREILQKTHHKNQQQQVLMDFLNDEGSSNWVDDDEEELILQRLKTSLKI
modifications: GST-His6 tag
notes: as for B1
B4: DFG5: yeast GST-HisX6 fusion protein on proteome chip (protein, UniProt Q05031 27-437, looked up)
Mannan …: MDLDTTSKTSICDATALIQGGMLDYYEGTRYGGTVGMFQSPYYWWHAGEAFGGMLENWFLCENDTYQELLYDALLAQTGSNYDYIPSNQTMVEGNDDQGIWGITVMGAVERNFTDPGDGKPGWLAMVQAVFNTMYSRWDSEHCGGGLRWQIFTWNSGYNYKNTVSNACLFQIAARLGRYTGNTTYLEVAEQVFDWLVDVGYVVLNDTANVFDGAEIDTNCTDITKIEWTYNHGIVLGGLAYMYNATNGTGEWETSLTKILNGAKSYFFKDSIMYESACQDYGTCNTDQRTFKSIFSRMLGLTSVMAPFTRDTIDDLIKTSAEAAAKSCNGGTDGHTCGLNWQKQTNDGYYGLGEQMSALEVIQNLLIHDRPAPYKEDNGGTSKGDANAGMNSSTTNVLQNNLNIKKGDRAG
modifications: GST-His6 tag
notes: as for B1
B5: DIN7: yeast GST-HisX6 fusion protein on proteome chip (protein, UniProt Q12086 1-430, looked up)
DNA damage-inducible protein …: MGIPGLLPQLKRIQKQVSLKKYMYQTLAIDGYAWLHRASCACAFELVMNKPTNKYLQFFIKRLQLLKRLKIKPYIVFDGDSLFVKNHTETRRRKKRLENEMIAKKLWSAGNRYNAMEYFQKSVDITPEMAKCIIDYCKLHSIPYIVAPFEADPQMVYLEKMGLIQGIISEDSDLLVFGCKTLITKLNDQGKALEISKDDFSALPENFPLGELSEQQFRNLVCLAGCDYTSGIWKVGVVTAMKIVKRYSEMKDILIQIERTEKLCFSKAFKQQVEFANYAFQYQRVFCPLSNQITTLNNIPKAVTNSHAEIIKIMKCIGSVVERGSGVRKDVINTKNIDHKVHEMIAKGELHPVDMASKLINRERKLKARKLFKVGLLGGESNSFNKKVEQPLVDTQDVLSERENSLDNKNASSIYMTSPAAISGTVPSIF
modifications: GST-His6 fusion tag
notes: as for B1
B6: CAM1: yeast GST-HisX6 fusion protein on proteome chip (protein, UniProt P29547 2-415, looked up)
Elongation factor 1-gamma 1: SQGTLYANFRIRTWVPRGLVKALKLDVKVVTPDAAAEQFARDFPLKKVPAFVGPKGYKLTEAMAINYYLVKLSQDDKMKTQLLGADDDLNAQAQIIRWQSLANSDLCIQIANTIVPLKGGAPYNKKSVDSAMDAVDKIVDIFENRLKNYTYLATENISLADLVAASIFTRYFESLFGTEWRAQHPAIVRWFNTVRASPFLKDEYKDFKFADKPLSPPQKKKEKKAPAAAPAASKKKEEAKPAATETETSSKKPKHPLELLGKSTFVLDDWKRKYSNEDTRPVALPWFWEHYNPEEYSLWKVTYKYNDELTLTFMSNNLVGGFFNRLSASTKYMFGCLVVYGENNNNGIVGAVMVRGQDYVPAFDVAPDWESYDYAKLDPTNDDDKEFINNMWAWDKPVSVNGEPKEIVDGKVLK
modifications: GST-His6 tag
notes: as for B1
B7: MPD2: yeast GST-HisX6 fusion protein on proteome chip (protein, UniProt Q99316 23-277, looked up)
Protein disulfide isomerase …: YSEAVTMVKSIEQYFDICNRNDSYTMIKYYTSWCQHCKTLAPVYEELGELYAKKANKDDTPINFLEVNCEFFGPTLCTDLPGFPIIELVKPRTKPLVLPKLDWSSMKFHERLWQRIKTWFNNPKYQLDTSRVVRFEGSRNLKSLSNFIDTVRSKDTEERFIEHIFDDSRNCNEELRSQQLLCKAGKEYYSDTLSKLYGDVNGLEKERRRLEALIKQNGDDLSKEVKEKLKIIRLQLSLLSHIEDQLEDTSSHDEL
modifications: GST-His6 tag
notes: as for B1

The first series relates to phosphatidylcholine (PC) liposomes. The series is described as follows: Yeast proteome chip probed with PC liposomes. The following applies: liposome binding signal on yeast proteome chip, Cy3-streptavidin detection. The text has this: (§1) To identify PI-binding proteins in yeast, liposomes were used as probes because the liposome provides the most relevant physiological condition to assay the interactors. Six types of liposomes were used. Each contains phosphatidylcholine (“PC”) with 1% (w/w) N-(biotinoyl)-1,2-dihexadecanoyl-sn-glycero-3-phosphoethanolamine, triethylammonium salt (biotin DHPE). The biotinylated lipid serves as a label that can be detected by Cy3-streptavidin (21). In addition to PC, the five other liposomes contain either 5% (w/w) PI(3)P, PI(4)P, PI(3,4)P2, PI(4,5)P2, or PI(3,4,5)P3 (FIG. 3A).
(§2) The protein-liposome interaction was assayed as follows. Appropriate amounts of each lipid in chloroform were mixed and dried under nitrogen. The lipid mixture was resuspended in TBS buffer by vortexing. The liposomes were created by sonication. Blocked proteome chips were washed three to five times in PBS buffer, and the extra liquid on the glass surface was removed by tapping the slides vertically on a KIMWIPE™. 200 μl of liposome solution was added to the proteome chip and immediately covered by a hydrophobic plastic cover slip (GRACE BIO-LAB™, USA). After trapped air bubbles were removed, the chip was incubated in a humidity chamber at RT for one hour. To remove the cover slip, the chip was immersed into large volume of PBS buffer (50 ml), so that the slip would float away. The chip was then moved to a second PBS bath (>50 ml) and washed 3×5 min with shaking at RT. After removing extra liquid on the surface of the chip, about 100 μl of Cy3 or Cy5 conjugated streptavidin (PIERCE™, USA; 1:2000 to 1:4000 dilution) was added to the surface and covered by a hydrophobic plastic cover slip (GRACE BIO-LABS™, USA). The chip was incubated for greater than 30 min in the dark at RT. The chip was then washed as described above. To completely remove the liquid on the chip, the chip was spun to dryness at 1500-2000 rpm for 5-10 min at RT.
(§3) • 1. S. Fields, Y. Kohara, D. J. Lockhart, Proc. Natl. Acad. Sci. 96, 8825 (1999); A. Goffeau et al., Science 274, 563 (1996). • 2 P. Ross-Macdonald et al., Nature 402, 413 (1999); J. L., DeRisi, V. R. Iyer, P. O. Brown, Science 278, 680 (1997); E. A. Winzeler et al., Science 285, 901 (1999). P. Uetz et al., Nature 403, 623 (2000); T. Ito et al., Proc. Natl. Acad. Sci. USA. 97, 1143 (2000) • 3 H. Zhu, M. Snyder, Curr. Opin. Chem. Biol. 5, 40 (2001). • 4 M. R. Martzen et al., Science 286, 1153 (1999). • 5 H. Zhu et al., Nat. Genet. 26, 283 (2000). • 6 G. MacBeath, S. L. Schreiber, Science 289, 1760 (2000). • 7 A. Caveman, J. Cell Sci. 113, 3543 (2000). • 8 P. Arenkov et al., Anal. Biochem 278, 123 (2000). • 9 D. A. Mitchell, T. K. Marshall, R. J. Deschenes, Yeast 9, 715 (1993). The expression vector pEGH was created by inserting an RGS-HisX6 epitope tag between the GST gene and the polycloning site of pEG(KG). The yeast ORFs were cloned using the strategy described previously (5), except every step was done in a 96-well format. Plasmid DNAs confirmed by DNA sequencing were reintroduced into both yeast (Y258) and E. coli (DH5a). […] 0.1 mM calcium was present in buffers in all subsequent steps. The chip was washed three times with PBS at RT. Cy3-conjugated streptavidin (Jackson IR, USA) (1:5000 dilution) was added to the chip and incubated for 30 min at RT. After extensive washing, the chip was spun dry and scanned using a microarray scanner; the data was subsequently acquired with the GENEPIX™ array densitometry software (Axon, USA). • 12 S. S. Hook, A. R. Means, Annu. Rev. Pharmacol. Toxicol.41, 471 (2001). • 13 M. S. Cyert, R. Kunisawa, D. Kaim, J. Thorner, Proc. Natl. Acad. Sci. USA 88, 7376 (1991). • 14 D. A. Stirling, K. A. Welch, M. J. Stark, EMBO J. 13, 4329 (1994). • 15 F. Bohl, Kruse, EMBO J. 19, 5514 (2000); E. Bertrand et al., Mol. Cell 2, 437 (1998). • 16 D. C. Winter, E. Y. Choe, R. Li, Proc. Nat. Acad Sci. USA 96, 7288 (1999). • 17 C.
Molecule B1 returned a PC of 6.46.
Still for that read-out and setting: with B2 the figure was 22.30.
With B3, the PC turned out to be 4.99.
Same read-out and setting: with B4 the figure was 127.66; with B5, 21.42; with B6, 18.49.
On to B7, for which the PC amounted to 25.24.

A further series deals with PI(3,4,5)P3 liposomes. The series is described as follows: Yeast proteome chip probed with PI(3,4,5)P3 liposomes. The following applies: liposome binding signal on yeast proteome chip, Cy3-streptavidin detection.
Source text: as §1, §2, §3
On to B1, for which the “PI(3, 4, 5)P3” value was −0.45.
For B2, the “PI(3, 4, 5)P3” value stood at 33.97.
Same read-out and setting: with B3 the figure was 3.38; with B4, 60.98; with B5, 14.06.
On the same count and under the same terms, with B6 the figure was 4.16; with B7, 15.07.

The subject of the next series is PI(3,4)P2 liposomes. The series is described as follows: Yeast proteome chip probed with PI(3,4)P2 liposomes. The following applies: liposome binding signal on yeast proteome chip, Cy3-streptavidin detection.
Source text: as §1, §2, §3
With B1, the “PI(3, 4)P2” value came out at 7.38.
Same read-out and setting: with B2 the figure was 7.53; with B3, −0.78; with B4, 48.66.
On the same count and under the same terms, with B5 the figure was 10.05.
Still for that read-out and setting: with B6 the figure was −0.16.
Take B7: the “PI(3, 4)P2” value stood at 31.71.

A further series has as its system PI(4,5)P2 liposomes. The series is described as follows: Yeast proteome chip probed with PI(4,5)P2 liposomes. The following applies: liposome binding signal on yeast proteome chip, Cy3-streptavidin detection.
Source text: as §1, §2, §3
B1: the “PI(4, 5)P2” value came to 1.96.
Same read-out and setting: with B5 the figure was 14.59; with B6, 25.69; with B7, 8.71.

A further series relates to PI(4)P liposomes. In words: Yeast proteome chip probed with PI(4)P liposomes. The settings on record: liposome binding signal on yeast proteome chip, Cy3-streptavidin detection.
Source text: as §1, §2, §3
Take B1: the “PI(4)P” value came out at 12.85.
Take B2: the “PI(4)P” value came out at 23.52.
The same measure, in the same setting: with B3 the figure was −0.22.
For B4, the “PI(4)P” value came to 19.81.
On the same count and under the same terms, with B5 the figure was 33.75.
On the same count and under the same terms, with B6 the figure was 21.99; with B7, 37.45.
